Reference: the supplement of paper PMC10567573

B1: RIPK4 (parent)
chain: VIDLFDEQGLSALHLAAQGRHAQT
B2: MFF (parent)
chain: MAEISRIQYEMEYTEGISQRMRVP

Variants of: B1
Assay: protein stability index of a GFP-peptide fusion (GPS, HEK-293T) (PSI 1-6); higher = more stable
Details: c terminus: a fixed tail appended
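Also: lentivirally expressed fusions sorted by FACS into six bins by GFP to DsRed ratio, PSI derived from sequencing read proportions per bin multiplied by bin number.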

Protein stability index: each site, then its substitutions
G19: E 3.37 | Y 2.66 | W 1.99 | H 2.59 | P 2.76 | Q 3.07 | K 3.13 | A 2.57
H14: F 1.82 | M 1.89 | K 2.8
E7: S 2.73 | I 2.2 | W 1.98 | R 1.98 | D 2.73 | V 2.32 | G 2.01
A17: Q 2.98 | W 1.75 | I 2.69 | N 3.13 | M 1.99 | E 3.54 | H 2.72 | P 2.82
G9: A 2.76 | Y 1.6 | Q 2.75 | R 2.4 | L 2.07 | E 3.13 | I 1.94 | K 2.56 | T 2.25 | W 1.69 | F 1.61
Q23: V 2.53 | N 2.84 | A 2.67 | W 1.93 | K 3.17
A22: P 2.79 | I 2.14 | D 3.03 | H 2.87 | C 2.32
L4: D 4.18 | C 2.76 | I 2.86 | M 3.11 | H 3.81 | R 3.34
L15: Y 2.32 | V 3.07
D6: W 2.55 | S 2.57 | P 3.13 | Y 1.63 | G 1.77 | E 2.71 | K 1.81 | V 3.75 | I 4.12
S11: E 3.11 | M 2.18 | D 3.04 | Q 2.95
V1: A 3.82 | R 3.41 | P 3.72 | N 3.7
I2: Y 2.97 | F 2.42 | Q 3.76 | D 4.21 | V 3.67 | C 3.4 | K 3.89 | P 3.66 | M 3.26
Q18: W 2.88 | N 2.88 | V 2.3 | C 2.3 | L 1.85 | F 2.01
A16: I 2.35 | L 1.85 | N 3.46 | P 3.42 | S 3.15 | Y 2.08 | M 2.4 | W 1.51 | E 3.2 | G 3.27
T24: N 2.92 | P 2.41 | W 1.86 | D 3.76 | I 2.47 | V 2.69 | H 2.38 | G 3.15 | R 3.38 | Q 2.51 | M 2.63 | E 4
Q8: R 2.82 | F 2.05 | H 2.61 | K 2.58 | W 1.45 | S 2.65 | Y 2.25 | C 1.76 | V 2.53
D3: Y 1.1 | W 2.95 | G 2.58 | L 1.89 | R 2.34 | E 2.66 | N 2.7 | F 3.19 | M 1.36 | K 2.31 | C 2.25
L10: H 3.19 | G 3.6 | K 3.31 | E 4.48 | C 3.2 | Y 2.75 | P 3.63
A12: F 2.05 | W 2.12 | I 1.91 | E 3.54 | H 2.6 | G 2.39 | M 2.46 | K 3.5
H21: W 1.9 | P 3.01 | K 3.41 | R 2.24 | S 2.76 | A 2.41 | F 2.22 | Y 2.47 | D 3.18
R20: L 2.34 | D 3.82 | I 2.46 | A 2.66 | W 2.02 | H 2.8 | N 3.02
L13: P 4.04 | A 3.38 | E 4.17 | R 3.31 | N 3.3 | W 2.82 | Q 3.8 | H 3.48 | G 3.87 | S 3.58 | M 3.66 | I 2.75
F5: L 2.95 | S 3.67 | W 2.44 | I 2.89 | M 2.78 | P 4.81 | E 4.6 | C 3.08

Variants of: B2
Assay: as above
Details: c terminus: a fixed tail appended

Protein stability index: each site, then its substitutions
V23: W 1.7 | F 1.99 | C 2.87 | L 2.46 | Y 2.41 | E 2.73 | T 2.56 | Q 2.99 | M 2.63 | P 2.54 | D 3.23 | I 2.07 | N 2.61 | K 3.43 | R 2.73 | H 2.54 | G 2.72 | A 2.31 | S 2.51
R22: P 2.56 | N 2.36 | G 2.46 | M 2.38 | Q 2.43 | V 2.9 | F 1.69 | I 1.84 | L 2.48 | E 2.86 | Y 2.23 | K 2.8 | T 2.98 | D 2.6 | H 2.46 | S 2.44 | C 2.4 | A 2.63 | W 2.01
M21: N 3.32 | W 1.91 | E 3.58 | D 3.41 | F 2.38 | S 3.31 | A 3.17 | Y 2.9 | Q 3.12 | G 3.62 | L 2.26 | K 3.73 | R 3.9 | I 2.42 | P 3.59 | C 2.32 | T 3.33 | H 3.6 | V 2.79
I17: L 2.52 | E 3.36 | D 3.95 | F 1.99 | G 3.55 | A 3.03 | S 3.52 | H 3.4 | V 2.96 | Q 3.76 | R 3.67 | K 3.18 | W 2.25 | P 3.57 | T 3.4 | Y 2.62 | C 2.92 | M 2.35 | N 3.3
R20: I 2.05 | V 2.17 | T 2.66 | W 1.67 | K 2.72 | Y 1.58 | E 3.1 | A 2.01 | M 2.13 | N 2.46 | G 2.14 | L 2.1 | Q 2.3 | S 2.27 | F 2.08 | H 2.22 | C 2.41 | D 3.56 | P 2.73
G16: W 2.04 | Y 1.48
S18: N 2.98 | E 3.04 | Y 1.92 | T 2.6 | V 1.74 | Q 2.62 | C 2.41 | M 1.94 | P 2.65 | A 1.56 | L 1.82 | G 2.51 | K 2.27 | D 2.97 | W 1.89 | R 2.27 | H 2.13 | F 1.97 | I 1.66
P24: W 1.32 | K 2.98 | C 1.93 | L 2.16 | A 2.16 | V 1.84 | M 2.21 | I 1.91 | Q 2.75 | H 2.02 | N 2.56 | D 2.7 | F 1.54 | G 2.44 | Y 1.85 | T 3.42 | S 2.33 | E 2.74 | R 2.87
Q19: T 2.66 | E 2.54 | M 2.65 | A 2.47 | D 3.16 | L 1.41 | W 2.16 | N 3.06 | S 2.56 | R 2.59 | Y 1.81 | G 2.81 | I 1.89 | V 1.62 | C 2.41 | H 2.34 | P 2.77 | K 2.44 | F 1.56
